Assay results reported in PMC3929087.

How the values were obtained:
[1] = secretion into CHO culture medium (unpublished data); settings: glycan lost; control: wild type
[2] = cellular trafficking, method not given; settings: glycan lost; control: wild type

B1: angiotensin I-converting enzyme (somatic ACE): N1162Q (protein)
parent chain: MGAASGRRGPGLLLPLPLLLLLPPQPALALDPGLQPGNFSADEAGAQLFAQSYNSSAEQVLFQSVAASWAHDTNITAENARRQEEAALLSQEFAEAWGQKAKELYEPIWQNFTDPQLRRIIGAVRTLGSANLPLAKRQQYNALLSNMSRIYSTAKVCLPNKTATCWSLDPDLTNILASSRSYAMLLFAWEGWHNAAGIPLKPLYEDFTALSNEAYKQDGFTDTGAYWRSWYNSPTFEDDLEHLYQQLEPLYLNLHAFVRRALHRRYGDRYINLRGPIPAHLLGDMWAQSWENIYDMVVPFPDKPNLDVTSTMLQQGWNATHMFRVAEEFFTSLELSPMPPEFWEGSMLEKPADGREVVCHASAWDFYNRKDFRIKQCTRVTMDQLSTVHHEMGHIQYYLQYKDLPVSLRRGANPGFHEAIGDVLALSVSTPEHLHKIGLLDRVTNDTESDINYLLKMALEKIAFLPFGYLVDQWRWGVFSGRTPPSRYNFDWWYLRTKYQGICPPVTRNETHFDAGAKFHVPNVTPYIRYFVSFVLQFQFHEALCKEAGYEGPLHQCDIYRSTKAGAKLRKVLQAGSSRPWQEVLKDMVGLDALDAQPLLKYFQPVTQWLQEQNQQNGEVLGWPEYQWHPPLPDNYPEGIDLVTDEAEASKFVEEYDRTSQVVWNEYAEANWNYNTNITTETSKILLQKNMQIANHTLKYGTQARKFDVNQLQNTTIKRIIKKVQDLERAALPAQELEEYNKILLDMETTYSVATVCHPNGSCLQLEPDLTNVMATSRKYEDLLWAWEGWRDKAGRAILQFYPKYVELINQAARLNGYVDAGDSWRSMYETPSLEQDLERLFQELQPLYLNLHAYVRRALHRHYGAQHINLEGPIPAHLLGNMWAQTWSNIYDLVVPFPSAPSMDTTEAMLKQGWTPRRMFKEADDFFTSLGLLPVPPEFWNKSMLEKPTDGREVVCHASAWDFYNGKDFRIKQCTTVNLEDLVVAHHEMGHIQYFMQYKDLPVALREGANPGFHEAIGDVLALSVSTPKHLHSLNLLSSEGGSDEHDINFLMKMALDKIAFIPFSYLVDQWRWRVFDGSITKENYNQEWWSLRLKYQGLCPPVPRTQGDFDPGAKFHIPSSVPYIRYFVSFIIQFQFHEALCQAAGHTGPLHKCDIYQSKEAGQRLATAMKLGFSRPWPEAMQLITGQPNMSASAMLSYFKPLLDWLRTENELHGEKLGWPQYNWTPNSARSEGPLPDSGRVSFLGLDLDAQQARVGQWLLLFLGIALLVATLGLSQRLFSIRHRSLHRHSHGPQFGSEVELRHS
- expression_or_secretion [1]: no change
- localisation_or_trafficking [2]: no change
